Source: paper PMC11418285

Key:
[1] = molecular target: FcγRI (CD64) (human) (UniProt P12314)
[2] = molecular target: FcγRIIIa (CD16a) 158F allele (human) (UniProt P08637)
UniProt P08637, sequence (P08637 17-254): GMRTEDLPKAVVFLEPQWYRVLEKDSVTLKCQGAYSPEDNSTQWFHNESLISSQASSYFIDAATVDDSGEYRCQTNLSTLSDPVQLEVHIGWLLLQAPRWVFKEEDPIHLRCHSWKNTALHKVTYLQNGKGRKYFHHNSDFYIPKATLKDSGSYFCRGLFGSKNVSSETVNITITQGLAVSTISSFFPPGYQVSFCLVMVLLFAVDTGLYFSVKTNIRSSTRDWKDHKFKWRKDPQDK

UniProt P12314, sequence (P12314 16-374): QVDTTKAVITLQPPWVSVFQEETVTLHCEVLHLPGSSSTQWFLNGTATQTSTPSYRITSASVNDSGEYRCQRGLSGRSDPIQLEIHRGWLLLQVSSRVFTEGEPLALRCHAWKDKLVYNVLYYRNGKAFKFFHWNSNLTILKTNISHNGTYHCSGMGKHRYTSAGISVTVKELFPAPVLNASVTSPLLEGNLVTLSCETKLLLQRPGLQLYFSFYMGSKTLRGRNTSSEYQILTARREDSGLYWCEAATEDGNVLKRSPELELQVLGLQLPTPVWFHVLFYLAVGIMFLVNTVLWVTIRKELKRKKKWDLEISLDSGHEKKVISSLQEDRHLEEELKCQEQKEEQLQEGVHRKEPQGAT

Substance “anti-CD20 antibody with rituximab V regions, human IgG1 S239D A330L I332E” has an ADCP activity, Fc effector cell reporter bioassay, relative to wild-type IgG1 [1] of 1.87 fold.
Work on “anti-CD20 antibody with rituximab V regions, afucosylated wild-type human IgG1” yielded an ADCC activity, Fc effector cell reporter bioassay, relative to wild-type IgG1 [2] of 201 fold.
